Laboratory results as given in patent publication US20210079558A1.

Molecular target: Protein A expressed on Staphylococcus aureus (Staphylococcus aureus) (UniProt P38507)
Assay: yeast display; one round of selection with cell-surface biotinylated S. aureus and magnetic streptavidin-coated beads; GFP+ yeast counted by flow cytometry

Substance: Fc region of the human IgG1 protein N297Q (aglycosylated) mutant, displayed on the surface of yeast
- fold enrichment of GFP+ yeast: 30 fold
